The assay concerns the target anti-FXIa antibody 076D-M007-H04-CDRL3-N110D. Put plainly: cell-based or functional assay.

Residue numbers refer to the chain shown, from its start.

B1: TPP-9251 (antibody, human IgG1, lambda, V domains shown)
VH: EVQLLESGGGLVQPGGSLRLSCAASGFTFSNYGIHWVRQAPGKGLEWVSAIGTGGDTYYADSVTGRFTISRDNSKNTLYLQMNSLRAEDTAVYYCARDRGYYDILTGLYDYWGQGTLVTVSS
VL: QSVLTQPPSASGTPGQRVTISCSGSSSNIGNNYVNWYQQLPGTAPKLLIYGNYHRPSGVPDRFSGSKSGTSASLAITGLQAEDEADYYCSSYAGSNNWVFGGGTKLTVLG
As to B1, the “aPTT 1.5 X” value is 0.06 µM, the “biochemical FXIa assay IC 50” value is 0.2 nM and the “plasma based assay IC 50” value stood at 6 nM.

B2: TPP-9238 (antibody, human IgG1, lambda, V domains shown)
VH: B1 VH with T64M
VL: B1 VL
As for B2, the “aPTT 1.5 X” value amounted to 0.1 µM, the “biochemical FXIa assay IC 50” value was 0.5 nM and the “plasma based assay IC 50” value was 10 nM.

B3: TPP-9258 (antibody, human IgG1, lambda, V domains shown)
VH: B1 VH with N31S, I34M, T64Q
VL: B1 VL
B3: the “aPTT 1.5 X” value amounted to 0.1 µM, the “biochemical FXIa assay IC 50” value came to 0.5 nM and the “plasma based assay IC 50” value amounted to 7 nM.

Values taken from patent publication US20210395390A1 (Bayer, published 2021).
